± gives the standard error. For part of these data: Fewer inactive variants are shown than the library holds.
B1: glmS ribozyme (parent)
chain: AUAAAAGCGCCAGAACUACAGAAAUGUAGUUGACGAGGAGGAGGUUUAUCGAAUUUUCGGCGGAUGCCUCCAAA

Experiments:
Settings in all cases: with glucosamine-6-phosphate
[1] = variants of: B1; assay: kcat; higher = faster cleavage; RNA array
How it was run: (§1)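 E. coli RNA polymerase transcribed barcoded ribozyme variants in situ on sequenced MiSeq chips, which were tracked via a hybridised Cy3 probe at 37 °C. Tiles were imaged over ~14 h after glucosamine-6-phosphate (40 μM to 10 mM) in HEPES/KCl/Mg(OAc)2 buffer was flowed in. Normalised per-tile medians were fit to one- or two-exponential decays for kobs, and kcat and KM came from weighted Michaelis–Menten fits.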

[2] = variants of: B1; assay: self-cleavage kobs at 640 uM GlcN6P; higher = faster cleavage; RNA array
How it was run: as §1

[3] = variants of: B1; assay: self-cleavage kobs at 2500 uM GlcN6P; higher = faster cleavage; RNA array
How it was run: as §1

[4] = variants of: B1; assay: self-cleavage kobs at 10000 uM GlcN6P; higher = faster cleavage; RNA array
How it was run: as §1

[5] = variants of: B1; assay: KM; higher = weaker cofactor use; RNA array
How it was run: as §1

[6] = variants of: B1; assay: self-cleavage kobs at 40 uM GlcN6P; higher = faster cleavage; RNA array
How it was run: as §1

[7] = variants of: B1; assay: self-cleavage kobs at 160 uM GlcN6P; higher = faster cleavage; RNA array
How it was run: as §1

Row | Variant | kcat [1] [s⁻¹] | self-cleavage kobs at 640 uM GlcN6P [2] [s⁻¹] | self-cleavage kobs at 2500 uM GlcN6P [3] [s⁻¹] | self-cleavage kobs at 10000 uM GlcN6P [4] [s⁻¹] | KM [5] [µM] | self-cleavage kobs at 40 uM GlcN6P [6] [s⁻¹] | self-cleavage kobs at 160 uM GlcN6P [7] [s⁻¹]
1 | G40A G41A | 0.000106 ± 2.5e-05 | 6.83e-05 ± 1.2e-05 | 0.000163 ± 2.3e-05 | 8.89e-05 ± 1e-05 | – | – | –
2 | G40A A42G | 0.00697 ± 0.0023 | 0.00157 ± 0.00024 | 0.00363 ± 0.00075 | 0.00783 ± 0.0018 | 1900 ± 820 | 0.000182 ± 2.4e-05 | 0.00046 ± 9.7e-05
3 | A39G U56C | 0.00799 ± 0.002 | 0.00106 ± 0.00014 | 0.0039 ± 0.00058 | 0.00611 ± 0.00076 | 3240 ± 1100 | 0.000109 ± 1.2e-05 | 0.000656 ± 0.00018
4 | A39U C58G | 0.000106 ± 3.3e-06 | – | 2.25e-05 ± 1e-05 | 5.48e-05 ± 1.2e-05 | 9290 ± 520 | – | –
5 | G41A A64G | 0.00209 ± 0.00064 | – | 0.00071 ± 0.00016 | 0.00128 ± 0.00023 | 5950 ± 2800 | – | 7.21e-05 ± 2e-05
6 | G38U C50G | 4.08e-05 ± 1.4e-05 | – | 6.94e-05 ± 1.4e-05 | – | – | – | –
7 | G40C C71G | 0.0271 ± 0.0085 | 0.00953 ± 0.0017 | 0.0203 ± 0.0057 | – | 1170 ± 420 | 0.000948 ± 8.7e-05 | 0.0028 ± 0.00046
8 | A39C U47G | 0.00107 ± 0.00043 | 0.000286 ± 5.5e-05 | 0.000425 ± 0.0001 | 0.00109 ± 0.0002 | – | – | –
9 | G40A C68U | 5.12e-05 ± 6.5e-06 | – | 4.58e-05 ± 1e-05 | 4.59e-05 ± 5.4e-06 | – | < 1e-05 | –
10 | A39C U46C U56C | 0.000367 ± 3.7e-05 | 6.45e-05 ± 1.5e-05 | 0.000196 ± 5.6e-05 | 0.000277 ± 5.9e-05 | 2880 ± 510 | – | –
11 | A39U G41U | 0.00058 ± 0.00011 | 0.000138 ± 1.7e-05 | 0.000402 ± 6.4e-05 | 0.000489 ± 6.8e-05 | 1710 ± 530 | – | 6.52e-05 ± 1.2e-05
12 | G40C C61U | < 1e-05 | < 1e-05 | – | – | – | < 1e-05 | < 1e-05
13 | G38C A52C | < 1e-05 | – | – | < 1e-05 | – | < 1e-05 | < 1e-05
14 | G40C U45A | 0.00147 ± 0.00022 | 0.000631 ± 7.8e-05 | 0.00123 ± 0.00018 | 0.00131 ± 0.00019 | 823 ± 200 | 7.94e-05 ± 9.2e-06 | 0.000183 ± 3.5e-05
15 | G38A U49A | < 1e-05 | – | – | < 1e-05 | – | < 1e-05 | –
16 | A39G C50A | 3.27e-05 ± 5.7e-06 | – | – | – | – | – | –
17 | A39G U55C | 0.0858 ± 0.023 | 0.0122 ± 0.0029 | – | 0.0709 ± 0.018 | 3000 ± 920 | 0.00123 ± 0.00015 | 0.00406 ± 0.0011

Row | Variant | kcat [1] [s⁻¹] | self-cleavage kobs at 640 uM GlcN6P [2] [s⁻¹] | self-cleavage kobs at 2500 uM GlcN6P [3] [s⁻¹] | self-cleavage kobs at 10000 uM GlcN6P [4] [s⁻¹] | KM [5] [µM] | self-cleavage kobs at 40 uM GlcN6P [6] [s⁻¹] | self-cleavage kobs at 160 uM GlcN6P [7] [s⁻¹]
18 | G40C A52U | 8.17e-05 ± 1.4e-05 | – | 7.08e-05 ± 9.7e-06 | 7.15e-05 ± 8.3e-06 | – | – | –
19 | G40C A52G | 0.00018 ± 3.1e-05 | 2.38e-05 ± 8.1e-06 | 0.000102 ± 1.5e-05 | 0.000133 ± 1.5e-05 | 2990 ± 1200 | – | –
20 | A39C C71G | 1.47e-05 ± 1.2e-06 | – | – | – | – | – | < 1e-05
21 | G41A U45G | 0.000391 ± 0.00013 | 0.000144 ± 2.4e-05 | 0.000565 ± 0.0001 | 0.000304 ± 5.2e-05 | – | 2.84e-05 ± 1.3e-05 | 3e-05 ± 1.3e-05
22 | G41A U45A | 0.000317 ± 4.9e-05 | 0.000296 ± 5.5e-05 | 0.000354 ± 8.1e-05 | 0.000299 ± 5.4e-05 | 140 ± 59 | 9.19e-05 ± 1.9e-05 | 0.000128 ± 3e-05
23 | G38C C61A | < 1e-05 | – | < 1e-05 | – | – | – | < 1e-05
24 | A39C U55A | 0.00799 ± 0.0028 | 0.00143 ± 0.00023 | 0.00295 ± 0.00058 | 0.00755 ± 0.0012 | 2790 ± 1400 | 0.000201 ± 4.2e-05 | 0.000429 ± 7.8e-05
25 | A39U U57A | 0.0002 ± 1.2e-05 | 2.12e-05 ± 7.4e-06 | 7.13e-05 ± 1e-05 | 0.000134 ± 1.5e-05 | 4780 ± 530 | – | –
26 | A39G A48G | 0.000124 ± 2.2e-05 | – | 0.00013 ± 2.7e-05 | 0.000106 ± 1.4e-05 | – | – | –
27 | G41A U54C | 0.000448 ± 5.8e-05 | 0.00013 ± 2.5e-05 | 0.000223 ± 4.7e-05 | 0.0004 ± 5.8e-05 | 1810 ± 510 | – | –
28 | G41A U56G | 0.000193 ± 1.8e-05 | 5.1e-05 ± 1.4e-05 | 0.000109 ± 3.5e-05 | 0.000169 ± 4.7e-05 | 1740 ± 310 | – | –
29 | G38U A39G C50G | 3.57e-05 ± 8.1e-06 | – | – | – | – | – | –
30 | G38A U55C | < 1e-05 | – | – | – | 37.7 ± 15 | – | –
31 | G40U U49G | 8.53e-05 ± 3.1e-05 | – | 9.77e-05 ± 2e-05 | 6.94e-05 ± 1.1e-05 | – | – | –
32 | G40A G66C | 0.000903 ± 0.00019 | 0.000166 ± 3.2e-05 | 0.00045 ± 8.6e-05 | 0.000774 ± 9.9e-05 | 2220 ± 740 | 3.77e-05 ± 1.3e-05 | 6.89e-05 ± 1.1e-05
33 | A39G G41U | 0.0014 ± 8.3e-05 | 0.000467 ± 8.1e-05 | 0.000965 ± 0.00021 | 0.00119 ± 0.00016 | 1410 ± 140 | 3.41e-05 ± 9.8e-06 | 0.000143 ± 2.9e-05
